According to patent publication US20130196320A1, “METHOD FOR IMPROVING CLEAVAGE OF DNA BY ENDONUCLEASE SENSITIVE TO METHYLATION” (CELLECTIS, priority 2010, published 2013):
Several values for one entry are separate records, joined by “and”; a condition that tells them apart may be missing. Equal entries are not always repeated.

B1: I-CreI: wild-type I-CreI meganuclease (… homing endonuclease), SEQ ID NO: 1, recombinant Cterm His-tag (protein, listed as Chlamydomonas reinhardtii)
chain: MNTKYNKEFLLYLAGFVDGDGSIIAQIKPNQSYKFKHQLSLTFQVTQKTQRRWFLDKLVDEIGVGYVRDRGSVSDYILSEIKPLHNFLTQLQPFLKLKQKQANLVLKIIEQLPSAKESPDKFLEVCTWVDQIAALNDSKTRKTTSETVRAVLDSLSEKKKSSP
modifications: C-terminal His-tag
B2: XPC4: engineered meganuclease (SEQ ID NO: 2) designed to cleave xeroderma pigmentosum group C gene (XPC) (protein)
chain: MANTKYNEEFLLYLAGFVDGDGSIIAQIKPNQSHKFKHALQLTFKVTQKTQRRWFLDKLVDEIGVGYVQDSGSVSNYILSEIKPLHNFLTQLQPFLELKQKQANLALKIIEQLPSAKESPDKFLEVCTWVDQVAALNDSKTRKTTSETVRAVLDSLSEKKKSSPAAGGSDKYNQALSKYNQALSKYNQALSGGGGSNKKFLLYLAGFVDSDGSIIAQIKPNQSHKFKHQLSLAFQVTQKTQRRWFLDKLVDRIGVGYVRDRGSVSDYILSKIKPLHNFLTQLQPFLKLKQKQANLVLKIIEQLPSAKESPDKFLEVCTWVDQVAALNDSKTRKTTSETVRAVLDSLSEKKKSSP

Columns and labels:
C1234 DNA target = experiment: In vitro single turn over cleavage assay with C1234 duplexes; type: biochemical
Experimental: (§1) FIG. 5: In vitro cleavage of unmethylated or methylated C1234 by I-Cre I wild type. A constant amount of C 1234 duplex (50 nM) was incubated with an excess of I-Cre I (1.5 μM, final concentration) in the reaction buffer (10 mM Tris-HCl, 150 mM NaCl, pH8) at 37° C. Cleavage reaction was triggered by the addition of MgCl2 and then stopped after different time lengths by the addition of the stop buffer. This was followed by one hour of incubation at 37° C. to digest I-Cre I and release free DNA molecules. Cleaved and uncleaved DNA products were separated by PAGE using a TGX Any kD precast gel (Bio-Rad), stained with SYBR Green and then quantified using Quantity One software (Bio-Rad). Disappearance of substrate (uncleaved DNA) is plotted as a function of time.
To investigate the influence of C1234 methylation on the nuclease activity of I-Cre I, in vitro single turn over cleavage assays were performed with either unmethylated or methylated C1234 duplexes (unmethylated C1234 composed of SEQ ID NO: 31+SEQ ID NO: 32, C1234_Me full composed of SEQ ID NO: 35+SEQ ID NO: 38, C1234_Me-6a/-5b composed of SEQ ID NO: 33+SEQ ID NO: 36, C1234_Me-3a/-2b composed of SEQ ID NO: 34+SEQ ID NO: 37, C1234_Me-3a composed of SEQ ID NO: 34+SEQ ID NO: 32, C1234_Me-2b composed of SEQ ID NO: 31+SEQ ID NO: 37, respectively). A constant amount of C1234 duplex (50 nM) was incubated with an excess of I-Cre I (1.5 μM, final concentration) in the reaction buffer (10 mM Tris-HCl, 150 mM NaCl, pH8) at 37° C. Cleavage reaction was triggered by the addition of MgCl2 and then stopped after different time lengths by the addition of the stop buffer (45% glycerol, 95 mM EDTA, 1.5% (w/v) SDS, 1.5 mg/mL proteinase K and 0.048% (w/v) bromophenol blue, final concentrations). This was followed by one hour incubation at 37° C. to digest I-Cre I and release free DNA molecules. Cleaved and uncleaved DNA products were separated by PAGE using a TGX Any kD precast gel (Bio-Rad), stained with SYBR Green and then quantified using Quantity One software (Bio-Rad).
To test the influence of C 1234 methylation on I-Cre I cleavage activity, single turn over cleavage assays in vitro were performed with unmethylated (composed of SEQ ID NO: 31+SEQ ID NO: 32) or with different methylated forms of C1234 (FIG. 5). In these assays C1234 was premixed to a large excess of recombinant meganucleases before addition of MgCl2. After different time lengths, the reaction was quenched by addition of a stop buffer, the remaining substrate was separated from the reaction product and then quantified. In these conditions, substrate disappearance was a first order process. The rate constant of this process corresponded to the turn over number (kcat) of the meganuclease. Turn over number measurement was not affected by affinity differences between methylated and unmethylated C1234 for I-Cre I because in our experimental conditions, the totality of C1234 was bound to the meganuclease at the beginning of reaction. In addition, this measurement was not affected by the rate limiting step of product release (Wang J, Kim H H, Yuan X, Herrin D L: Purification, biochemical characterization and protein-DNA interactions of the I-CreI endonuclease produced in Escherichia coli. Nucleic Acids Res 1997, 25:3767-3776) because the complex I-Cre I:cleaved C1234 product was artificially disrupted by the proteinase K and SDS present in the stop buffer.

XPC4.1 DNA target = experiment: In vitro single turn over cleavage assay with XPC4.1; type: biochemical
Experimental: as §1, with “8:” for “5:”, “XPC4.1” for “C1234”, “XPC4.” for “I-Cre I wild type.”, “XPC4.1” for “C 1234”, “XPC4” for “I-Cre I”, “Disappearance of substrate (uncleaved DNA) is plotted as a function of time.” left out
To investigate the influence of C1234 methylation on the nuclease activity of I-Cre I, in vitro single turn over cleavage assays were performed with either unmethylated or methylated C1234 duplexes (unmethylated C1234 composed of SEQ ID NO: 31+SEQ ID NO: 32, C1234_Me full composed of SEQ ID NO: 35+SEQ ID NO: 38, C1234_Me-6a/-5b composed of SEQ ID NO: 33+SEQ ID NO: 36, C1234_Me-3a/-2b composed of SEQ ID NO: 34+SEQ ID NO: 37, C1234_Me-3a composed of SEQ ID NO: 34+SEQ ID NO: 32, C1234_Me-2b composed of SEQ ID NO: 31+SEQ ID NO: 37, respectively). […] Cleaved and uncleaved DNA products were separated by PAGE using a TGX Any kD precast gel (Bio-Rad), stained with SYBR Green and then quantified using Quantity One software (Bio-Rad). […]

Molecule	kcat (C1234 DNA target; C1234_Me full (fully methylated)) [s⁻¹]	kcat (C1234 DNA target; C1234_Me-2b) [s⁻¹]	kcat (C1234 DNA target; C1234_Me-3a) [s⁻¹]	kcat (C1234 DNA target; C1234_Me-3a/-2b) [s⁻¹]	kcat (C1234 DNA target; C1234_Me-6a/-5b) [s⁻¹]	effect of methylation on catalytic activity (C1234 DNA target; C1234 methylated in position −2b)	effect of methylation on catalytic activity (C1234 DNA target; C1234 methylated in position −3a)	effect of methylation on catalytic activity (C1234 DNA target; C1234 methylated in positions −3a and −2b (within the cleavage region))	effect of methylation on catalytic activity (C1234 DNA target; C1234 methylated in positions −6a/−5b (outside the cleavage region))	kcat (C1234 DNA target; unmethylated C1234)	kcat (XPC4.1 DNA target; XPC4.1_Me −11a/−10b & +10a/+11b (fully methylated)) [s⁻¹]	kcat (XPC4.1 DNA target; unmethylated XPC4.1) [s⁻¹]
B1	<1.7e-06	<1.7e-06	0.00095 ± 0.0001	3.3e-06 ± 5e-05	0.00033 ± 0.00012	almost totally inhibited it	didn't affect 1-Cre I catalytic activity	strongly affected the catalytic activity of I-Cre I	did not affect I-Cre I catalytic activity	0.000417 s⁻¹ and 0.000417 ± 3.3e-05 s⁻¹	–	–
B2	–	–	–	–	–	–	–	–	–	–	0.0017 ± 0.00017	0.0013 ± 0.00017
